According to patent US20240391954A1, “MC4R AGONIST PEPTIDES” (The Regents of the University of Michigan, priority 2021, published 2024):
Starred links: 1 amine or outer side, 2 acyl side, 3 side chain; linkers in the order of their positions; H or OH if unused. Positions of bridges follow the written chain, without caps; N, C: chain ends. Non-standard residues stand in square brackets, D forms with d. dPhe(4-NHAc) = 4-acetamido-D-phenylalanine, CC(=O)Nc1ccc(C[C@@H](N[*:1])C(=O)[*:2])cc1; dPhe(4-tBu) = CC(C)(C)c1ccc(C[C@@H](N)C(=O)O)cc1; dPhe(4-Br) = N[C@H](Cc1ccc(Br)cc1)C(=O)O; dPhe(4-I) = N[C@H](Cc1ccc(I)cc1)C(=O)O; d(αMeF) = C[C@@](N)(Cc1ccccc1)C(=O)O; NMeR = CN[C@@H](CCCNC(=N)N)C(=O)O; Cit = NC(=O)NCCC[C@H](N)C(=O)O; Nle = CCCC[C@H](N)C(=O)O; R2 = not defined here

How the values were obtained:
Assay in all cases: cell-based or functional assay
[1] = biological target: human MC3R (human, UniProt P41968 1-323)
human MC3R, sequence (P41968 whole entry): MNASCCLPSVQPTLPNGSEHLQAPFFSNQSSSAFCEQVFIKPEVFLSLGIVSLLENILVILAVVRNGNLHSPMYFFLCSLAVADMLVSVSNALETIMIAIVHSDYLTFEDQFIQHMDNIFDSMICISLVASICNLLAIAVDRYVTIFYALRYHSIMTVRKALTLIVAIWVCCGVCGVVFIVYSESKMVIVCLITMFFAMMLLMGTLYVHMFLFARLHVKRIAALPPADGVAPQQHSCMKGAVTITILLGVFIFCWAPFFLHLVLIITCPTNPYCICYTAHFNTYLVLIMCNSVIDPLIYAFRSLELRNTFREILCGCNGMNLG

[2] = biological target: T1, human MC4R receptor (human, UniProt P32245 1-332)
T1 sequence (P32245 whole entry): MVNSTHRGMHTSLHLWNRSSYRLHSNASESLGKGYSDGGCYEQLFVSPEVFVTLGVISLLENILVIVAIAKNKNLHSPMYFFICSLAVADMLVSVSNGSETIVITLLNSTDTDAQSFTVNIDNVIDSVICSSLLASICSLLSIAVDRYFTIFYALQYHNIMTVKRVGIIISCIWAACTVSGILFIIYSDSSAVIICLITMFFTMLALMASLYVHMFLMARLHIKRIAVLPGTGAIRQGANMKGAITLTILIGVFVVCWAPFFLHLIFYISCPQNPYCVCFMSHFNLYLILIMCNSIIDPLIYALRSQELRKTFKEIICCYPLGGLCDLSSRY

[3] = biological target: T1, human MC4R receptor; remark: listed apart in the source

% max activation [1] [%] | cAMP EC50 [1] [nM] | % max activation [2] [%] | cAMP EC50 [2] [nM] | MC4R selectivity vs MC1R [3] | MC4R selectivity vs MC3R [3] | Binder
9.2 | 4 | 58 | 7.6 | 0.57 | 0.53 | Ac-RC[dA]R[dPhe(4-Br)][Cit][dW]C-NH2 (disulfide 2-8; SMILES CC(=O)N[C@@H](CCCNC(=N)N)C(=O)N[C@H]1CSSC[C@@H](C(N)=O)NC(=O)[C@@H](Cc2c[nH]c3ccccc23)NC(=O)[C@H](CCCNC(N)=O)NC(=O)[C@@H](Cc2ccc(Br)cc2)NC(=O)[C@H](CCCNC(=N)N)NC(=O)[C@@H](C)NC1=O) [CTX-1253]
18 | 2.8 | 47 | 2 | 1.31 | 1.36 | Ac-RC[dA][NMeR][dPhe(4-Br)]R[dW]C-NH2 (disulfide 2-8; SMILES CC(=O)N[C@@H](CCCNC(=N)N)C(=O)N[C@H]1CSSC[C@@H](C(N)=O)NC(=O)[C@@H](Cc2c[nH]c3ccccc23)NC(=O)[C@H](CCCNC(=N)N)NC(=O)[C@@H](Cc2ccc(Br)cc2)NC(=O)[C@H](CCCNC(=N)N)N(C)C(=O)[C@@H](C)NC1=O) [CTX-1248]
22 | 4.1 | 16 | 2.2 | 0.26 | 1.88 | Ac-R[Nle]CH[dPhe(4-I)]R[dW]C-NH2 (disulfide 3-8; SMILES CCCC[C@H](NC(=O)[C@H](CCCNC(=N)N)NC(C)=O)C(=O)N[C@H]1CSSC[C@@H](C(N)=O)NC(=O)[C@@H](Cc2c[nH]c3ccccc23)NC(=O)[C@H](CCCNC(=N)N)NC(=O)[C@@H](Cc2ccc(I)cc2)NC(=O)[C@H](Cc2c[nH]cn2)NC1=O) [CTX-1233]
2.8 | 2.2 | 5.8 | 26 | 0.64 | 0.08 | Ac-RC[dA]R[dPhe(4-tBu)]R[dW]C-NH2 (disulfide 2-8; SMILES CC(=O)N[C@@H](CCCNC(=N)N)C(=O)N[C@H]1CSSC[C@@H](C(N)=O)NC(=O)[C@@H](Cc2c[nH]c3ccccc23)NC(=O)[C@H](CCCNC(=N)N)NC(=O)[C@@H](Cc2ccc(C(C)(C)C)cc2)NC(=O)[C@H](CCCNC(=N)N)NC(=O)[C@@H](C)NC1=O) [CTX-1242]

Continued, binder first:

Binder | % max activation [1] [%] | cAMP EC50 [1] [nM] | % max activation [2] [%] | cAMP EC50 [2] [nM] | MC4R selectivity vs MC1R [3] | MC4R selectivity vs MC3R [3]
Ac-RC[dA][dR][dPhe(4-Br)]R[dW]C-NH2 (disulfide 2-8) [CTX-1250] | 10 | 2090 | 8.7 | 185 | 1.06 | 11
Ac-R[Nle]CH[dPhe(4-Br)]R[dW]C-NH2 (disulfide 3-8; SMILES CCCC[C@H](NC(=O)[C@H](CCCNC(=N)N)NC(C)=O)C(=O)N[C@H]1CSSC[C@@H](C(N)=O)NC(=O)[C@@H](Cc2c[nH]c3ccccc23)NC(=O)[C@H](CCCNC(=N)N)NC(=O)[C@@H](Cc2ccc(Br)cc2)NC(=O)[C@H](Cc2c[nH]cn2)NC1=O) [CTX-1231] | 59 | 7 | 64 | 2.3 | 0.19 | 3.04
R2-RC[dA]R[dPhe(4-Br)]R[dW]C-NH2 (disulfide 2-8; reading uncertain; also: printed as N-term. Mod. R2; Arg-cyclo(Cys-D-Ala-Arg-D-Phe(4-Br)-Arg-D-Trp-Cys)-NH2) [CTX-1226] | 29 | 12 | 71 | 3.8 | 1.33 | 3.21
Ac-RC[dA]RF[NMeR][dW]C-NH2 (disulfide 2-8; not fully specified (residue 5)) [CTX-1251] | 30 | 93 | 31 | 25 | 0.11 | 3.73
Ac-RC[dA]P[dPhe(4-Br)]R[dW]C-NH2 (disulfide 2-8; SMILES CC(=O)N[C@@H](CCCNC(=N)N)C(=O)N[C@H]1CSSC[C@@H](C(N)=O)NC(=O)[C@@H](Cc2c[nH]c3ccccc23)NC(=O)[C@H](CCCNC(=N)N)NC(=O)[C@@H](Cc2ccc(Br)cc2)NC(=O)[C@@H]2CCCN2C(=O)[C@@H](C)NC1=O) [CTX-1249] | 1.9 | 6.1 | 22 | 14 | 5.08 | 0.45
Ac-RC[dA]R[dPhe(4-NHAc)]R[dW]C-NH2 (disulfide 2-8) [CTX-1245] | 6.3 | 73 | 34 | 4450 | 0.08 | 0.02
Ac-RC[dA]R[dY]R[dW]C-NH2 (disulfide 2-8; SMILES CC(=O)N[C@@H](CCCNC(=N)N)C(=O)N[C@H]1CSSC[C@@H](C(N)=O)NC(=O)[C@@H](Cc2c[nH]c3ccccc23)NC(=O)[C@H](CCCNC(=N)N)NC(=O)[C@@H](Cc2ccc(O)cc2)NC(=O)[C@H](CCCNC(=N)N)NC(=O)[C@@H](C)NC1=O) [CTX-1237] | 19 | 79 | 61 | 998 | 0.24 | 0.08
Ac-RC[dA]R[d(αMeF)]R[dW]C-NH2 (disulfide 2-8; SMILES CC(=O)N[C@@H](CCCNC(=N)N)C(=O)N[C@H]1CSSC[C@@H](C(N)=O)NC(=O)[C@@H](Cc2c[nH]c3ccccc23)NC(=O)[C@H](CCCNC(=N)N)NC(=O)[C@@](C)(Cc2ccccc2)NC(=O)[C@H](CCCNC(=N)N)NC(=O)[C@@H](C)NC1=O) [CTX-1240] | 27 | 31 | 81 | 76 | 0.46 | 0.41
Ac-RC[dA]R[dPhe(4-Br)][dR][dW]C-NH2 (disulfide 2-8) [CTX-1252] | 1.1 | 57 | 4.4 | 885 | 0.04 | 0.06
